Data taken from patent US20250215108A1 (OSE IMMUNOTHERAPEUTICS, published 2025).
“And” between values parts separate entries of the source, which are not always exact repeats. Equal entries are not always repeated.

Assays:
SIRPa on human monocytes [1] = target: T1, SIRPa on human monocytes (human, UniProt P78324 31-504); assay: flow cytometry on human monocytes v1/v1 (Fc receptors blocked), PE anti-human Fc; readout MFI
T1 construct: also called human monocytes (v1/v1); SIRPa variant 1 on monocytes
Procedure: (§1) FIG. 3A, B, C, D, E, F, G. Binding analyses of anti-SIRPa antibodies on human monocytes (homozygote for SIRPa variant 1 (v1/v1)). [0478] […] Revelation was performed with a PE labeled mouse anti-human Fc mAb on Cantoll cytometer, values corresponding to percentage of stained monocytes. […] A corresponds to the percentage of monocytes v1/v1 stained. B corresponds to the mean of fluorescence intensity (MFI) of monocytes v1/v1. [0479] […] D represents the percentage of stained monocytes over antibody dose response. Statistical analysis were performed when it was possible. [0480] (E, F, G) SIRPa variants binding in the population by anti-h SIRPa antibodies: The capacity of different anti-hSIRPa antibodies to bind SIRPa variants in the 32 volunteers was measured by FACS with a PE-anti mouse IgG. […] F represents the homozygote variant 2 volunteers (n=8). G represents the heterozygote V1/V2 volunteers (n=8).
(§2) Method: To measure the binding of the anti-SIRPa antibodies on human monocytes, human Fc Receptor Binding Inhibitor (BD pharmingen; USA; reference 564220) was first added for 30 min at room-temperature to block human Fc receptors on human monocytes to reduce background. Then, an antibody was incubated for 30 min at 4° C., and washed before stained 30 min at 4° C. with PE-labelled anti-human IgG Fc (Biolegend; USA; reference 409303). For the mouse antibodies, a PE-labelled anti-mouseIgG (Jackson Immunoresearch; reference 715-116-151) was used. Samples were analyzed on BD LSRII or Canto II cytofluorometer.

SIRPa on human monocytes [2] = target: T1, SIRPa on human monocytes; assay: flow cytometry on human monocytes v1/v1 (Fc receptors blocked), PE anti-human Fc; readout % stained monocytes
Procedure: as §1, §2

SIRPa on human monocytes [3] = target: T1, SIRPa on human monocytes; assay: competition flow cytometry on human monocytes v1/v1: antibody titrated with biotinylated CD47-Fc (competitor; 10 µg/ml in the legend, 5 µg/ml in Example 5), PE-streptavidin; readout median fluorescence
Source text: (§3) FIG. 5A, B, C. […] [0485] […] A corresponds to the percentage of positive cells. B corresponds to the mean of fluorescence intensity. [0486]

[4] = target: T2, CD47 on human blood cells (T cells, red blood cells, platelets) (human, UniProt Q08722 19-323); assay: flow cytometry on human red blood cells (left panel) and freshly isolated human platelets (right panel)
T2 construct: whole, on cells

SIRPa on human monocytes [5] = target: T1, SIRPa on human monocytes; assay: competition flow cytometry on human monocytes v1/v1: antibody titrated with biotinylated CD47-Fc (competitor; 10 µg/ml in the legend, 5 µg/ml in Example 5), PE-streptavidin; readout % positives
Source text: as §3

[6] = target: T3, recombinant hSIRPa (Sino Biologicals, reference 10975-H08H) (human, UniProt P78324 31-370); assay: ELISA (ED50), immobilized hSIRPa, anti-mouse Fc detection
T3 construct: Used in the ELISA with the mouse antibodies
Procedure: For the ELISA assay with the mouse antibodies, a recombinant hSIRPa (Sino Biologicals, Beijing, China; reference 10975-H08H) was immobilized on plastic at 0.5 μg/ml in carbonate buffer (pH 9.2) and the purified antibody was added to measure binding.

Binder	EC50 (SIRPa on human monocytes [1]) [µg/mL]	EC50 (SIRPa on human monocytes [2]) [µg/mL]	IC50 (SIRPa on human monocytes [3]) [µg/mL]	binding result [4]	IC50 (SIRPa on human monocytes [5]) [µg/mL]	EC50 [6]
chimeric mouse/human 18D5 antibody (antibody, human IgG4 S228P, kappa, also called chimeric antibody; chimeric 18D5) heavy: not shown light: DVVMTQTPLSLPVSLGDQASISCRSSQSLVHSYGNTYLYWYLQKPGQSPKLLIYRVSNRFSGVPDRFSGSGSGTDFTLKISRVEAEDLGVYFCFQGTHVPYTFGSGTKLEIKRTVAAPSVFIFPPSDEQLKSGTASVVCLLNNFYPREAKVQWKVDNALQSGNSQESVTEQDSKDSTYSLSSTLTLSKADYEKHKVYACEVTHQGLSSPVTKSFNRGEC	0.78	0.225	0.2			
HFLA (humanized 18D5 variant) (antibody, human IgG4 S228P, kappa, V domains shown) VH: EVQLVQSGAEVKKPGESLRISCKASGYSFTSYWVHWVRQMPGKGLEWMGNIDPSDSDTHYSPSFQGHVTLSVDKSISTAYLQLSSLKASDTAMYYCVRGGTGTMAYFAYWGQGTLVTVSS VL: DVVMTQSPLSLPVTLGQPASISCRSSQSLVHSYGNTYLYWYQQRPGQSPRLLIYRVSNRFSGVPDRFSGSGSGTDFTLKISRVEAEDVGVYFCFQGTHVPYTFGGGTKVEIKR	0.328	0.174				
HALA (humanized 18D5 variant) (antibody, human IgG4 S228P, kappa, V domains shown) VH: EVQLVQSGAEVKKPGESLRISCKASGYTFTSYWVHWVRQMPGKGLEWIGNIDPSDSDTHYNQKFKDHVTLSVDKSISTAYLQLSSLKASDTAMYYCVRGGTGTMAWFAYWGQGTLVTVSS VL: DVVMTQSPLSLPVTLGQPASISCRSSQSLVHSYGNTYLYWYQQRPGQSPRLLIYRVSNRFSGVPDRFSGSGSGTDFTLKISRVEAEDVGVYFCFQGTHVPYTFGGGTKVEIKR	0.59	0.242				
HEFLA (humanized 18D5 variant) (antibody, human IgG4 S228P, kappa, V domains shown) VH: EVQLVQSGAEVKKPGESLRISCKASGYSFTSYWVHWVRQMPGKGLEWMGNIDPSDSDTHYSPSFQGHVTLSVDKSISTAYLQLSSLKASDTAMYYCVRGGTGTLAYFAYWGQGTLVTVSS VL: DVVMTQSPLSLPVTLGQPASISCRSSQSLVHSYGNTYLYWYQQRPGQSPRLLIYRVSNRFSGVPDRFSGSGSGTDFTLKISRVEAEDVGVYFCFQGTHVPYTFGGGTKVEIKR	0.858	0.356				
HEFLB (humanized 18D5 variant) (antibody, human IgG4 S228P, kappa, V domains shown, also called anti-SIRPa HEFLB; HEFLB variant) VH: EVQLVQSGAEVKKPGESLRISCKASGYSFTSYWVHWVRQMPGKGLEWMGNIDPSDSDTHYSPSFQGHVTLSVDKSISTAYLQLSSLKASDTAMYYCVRGGTGTLAYFAYWGQGTLVTVSS VL: DVVMTQSPLSLPVTLGQPASISCRSSQSLVHSYGNTYLYWFQQRPGQSPRLLIYRVSNRFSGVPDRFSGSGSGTDFTLKISRVEAEDVGVYYCFQGTHVPYTFGGGTKVEIKR	0.449	0.208		no binding		
HFLB (humanized 18D5 variant) (antibody, human IgG4 S228P, kappa, V domains shown) VH: EVQLVQSGAEVKKPGESLRISCKASGYSFTSYWVHWVRQMPGKGLEWMGNIDPSDSDTHYSPSFQGHVTLSVDKSISTAYLQLSSLKASDTAMYYCVRGGTGTMAYFAYWGQGTLVTVSS VL: DVVMTQSPLSLPVTLGQPASISCRSSQSLVHSYGNTYLYWFQQRPGQSPRLLIYRVSNRFSGVPDRFSGSGSGTDFTLKISRVEAEDVGVYYCFQGTHVPYTFGGGTKVEIKR	0.467	0.201			0.15	
mouse antibody 18D5 (antibody, mouse IgG2b, kappa, also called m18D5; m18D5 clone) heavy: QVQLQQPGAELVRPGSSVKLSCKASGYTFTSYWVHWVKQRPIQGLEWIGNIDPSDSDTHYNQKFKDKASLTVDKSSSTAYMQLSSLTFEDSAVYYCVRGGTGTMAWFAYWGQGTLVTVSAAKTTPPSVYPLAPGCGDTTGSSVTLGCLVKGYFPESVTVTWNSGSLSSSVHTFPALLQSGLYTMSSSVTVPSSTWPSQTVTCSVAHPASSTTVDKKLEPSGPISTINPCPPCKECHKCPAPNLEGGPSVFIFPPNIKDVLMISLTPKVTCVVVDVSEDDPDVQISWFVNNVEVHTAQTQTHREDYNSTIRVVSTLPIQHQDWMSGKEFKCKVNNKDLPSPIERTISKIKGLVRAPQVYILPPPAEQLSRKDVSLTCLVVGFNPGDISVEWTSNGHTEENYKDTAPVLDSDGSYFIYSKLNMKTSKWEKTDSFSCNVRHEGLKNYYLKKTISRSPGK light: DVVMTQTPLSLPVSLGDQASISCRSSQSLVHSYGNTYLYWYLQKPGQSPKLLIYRVSNRFSGVPDRFSGSGSGTDFTLKISRVEAEDLGVYFCFQGTHVPYTFGSGTKLEIKRADAAPTVSIFPPSSEQLTSGGASVVCFLNNFYPKDINVKWKIDGSERQNGVLNSWTDQDSKDSTYSMSSTLTLTKDEYERHNSYTCEATHKTSTSPIVKSFNRNEC						0.06 nM and 0.009 µg/mL
